Assay [1] has as its target PIF receptor (mouse; C2C12 membranes and mouse tissue plasma membranes) (mouse (C2C12 myotubes)). In words: cell-based or functional assay.
In assay [2] the target is PIF receptor (pig sarcolemma membranes) (pig). The assay can be described thus: Scatchard analysis of [35S]PIF binding to pig sarcolemma membranes, first site.
Assay [3] shares this target. The assay can be described thus: Scatchard analysis of [35S]PIF binding to pig sarcolemma membranes, second site.
Assay [4] has as its target PIF receptor (mouse; C2C12 membranes and mouse tissue plasma membranes) (mouse (C2C12 myotubes)). The assay can be described thus: Scatchard analysis of [35S]PIF binding to mouse heart plasma membranes, first site.
The target is the same in assay [5]. The assay can be described thus: Scatchard analysis of [35S]PIF binding to mouse liver plasma membranes, first site.
For assay [6] the target is unchanged. The assay can be described thus: Scatchard analysis of [35S]PIF binding to mouse heart plasma membranes, second site.
Assay [7] shares this target. In words: Scatchard analysis of [35S]PIF binding to mouse liver plasma membranes, second site.
For assay [8], the target named is PIF receptor (human muscle cell line Hs94MU membranes) (human). In words: Scatchard analysis of [35S]PIF binding to Hs94MU human muscle cell membranes, first site.
Assay [9] shares this target. In words: Scatchard analysis of [35S]PIF binding to Hs94MU human muscle cell membranes, second site.
Assay [10] concerns the target PIF receptor (mouse; C2C12 membranes and mouse tissue plasma membranes) (mouse (C2C12 myotubes)). The assay can be described thus: Scatchard analysis of [35S]PIF binding to mouse soleus muscle plasma membranes, first site.
Assay [11] has the same target. In words: Scatchard analysis of [35S]PIF binding to mouse soleus muscle plasma membranes, second site.
The target is the same in assay [12]. In words: Scatchard analysis of [35S]PIF binding to mouse gastrocnemius muscle sarcolemma membranes, first site.
For assay [13] the target is unchanged. The assay can be described thus: Scatchard analysis of [35S]PIF binding to C2C12 membranes, second site (column headed Kaff2 x 10^-9 M).
For assay [14] the target is unchanged. In words: Scatchard analysis of [35S]PIF binding to mouse gastrocnemius muscle sarcolemma membranes, second site.
For assay [15] the target is unchanged. In words: comparison of the affinity of PIF for muscle cell binding sites with its affinity for the MAC16 monoclonal antibody.
Assay [16] shares this target. The assay can be described thus: Scatchard analysis of [35S]PIF binding to C2C12 membranes, first site (column headed Kaff x 10^-10 M; text calls it Kd).
Assay [17] concerns the target Proteolysis Inducing Factor (PIF) (mouse (MAC16 cells)). The assay can be described thus: cell-based or functional assay.

The text below walks through data of patent publication US20120301404A1.

With “Proteolysis Inducing Factor (PIF) (ligand)”, in [1], the increased rate of protein degradation in C2C12 myoblasts over 24 and 48 h, effective concentrations lay in the range of 0.14 to 1.4 nM. This molecule returned a rate of protein degradation (release of L-[2,6-3H]phenylalanine) in C2C12 myoblasts, concentration of maximal effect at 6 h in [1] of 0.98 to 1.4 nM. The dissociation constant Kd came to 0.47 nM in assay [2]; 8.2 nM in assay [3]; 0.3 nM in [4]; 0.69 nM in assay [5]; 2.3 nM in assay [6]; 0.2 nM in assay [7]. The dissociation constant Kd is 0.11 nM in [8]; 1.7 nM in [9]; 0.01 nM in assay [10]; 0.12 nM in assay [11]; 0.52 nM in [12]; 1.2 nM in assay [13]. The figures for the Kd in assay [14] and in [16] were 0.1 nM and 0.14 nM, respectively. The molecule also came in with a fold greater affinity than binding to a monoclonal antibody in assay [15] of 10 to 100 fold.
In [17], DINGGGATLPQPLYQTAAVLTAGFA [N-terminal synthetic peptide of the PIF receptor (peptide of SEQ ID No. 1)] registered a PIF-induced increase in chymotrypsin-like enzyme activity of 10 µM and a PIF-induced protein degradation in murine myotubes of 10 µM.
